Reference: PMC4172472

Molecular target: vitronectin (UniProt P04004)
Sequence of UniProt P04004 (P04004 20-478): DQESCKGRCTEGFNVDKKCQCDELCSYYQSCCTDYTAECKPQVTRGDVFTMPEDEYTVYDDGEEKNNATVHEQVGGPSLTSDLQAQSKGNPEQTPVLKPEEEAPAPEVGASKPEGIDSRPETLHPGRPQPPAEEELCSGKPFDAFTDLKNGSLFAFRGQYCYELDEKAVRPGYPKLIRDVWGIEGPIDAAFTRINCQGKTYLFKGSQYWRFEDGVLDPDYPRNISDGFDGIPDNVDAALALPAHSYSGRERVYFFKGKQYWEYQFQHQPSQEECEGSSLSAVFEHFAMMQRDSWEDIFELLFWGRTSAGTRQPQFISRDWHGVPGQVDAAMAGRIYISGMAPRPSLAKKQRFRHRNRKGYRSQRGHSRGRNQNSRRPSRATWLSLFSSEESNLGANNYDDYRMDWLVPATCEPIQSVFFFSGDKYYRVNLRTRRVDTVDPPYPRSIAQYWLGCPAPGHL

αvβ3 integrin (from UniProt P06756 31-1048; P05106 27-788) (receptor)
detachment of adherent WM266 cells from vitronectin-coated plates by the anti-αvβ3 antibody LM609 (10 µg/mL), 2 h: 50%
